Laboratory results taken from PMC11931385, “Structural and functional analysis of cancer-associated missense variants in the retinoblastoma protein pocket domain” (The Journal of Biological Chemistry, 2025).
No end group written: not given here. TMR = tetramethyl rhodamine dye

T1: retinoblastoma protein pocket domain (Rb^P), wild type (human, UniProt P06400 380-788)
T1 construct: also called WT Rb^P; WT
T1 sequence (looked up): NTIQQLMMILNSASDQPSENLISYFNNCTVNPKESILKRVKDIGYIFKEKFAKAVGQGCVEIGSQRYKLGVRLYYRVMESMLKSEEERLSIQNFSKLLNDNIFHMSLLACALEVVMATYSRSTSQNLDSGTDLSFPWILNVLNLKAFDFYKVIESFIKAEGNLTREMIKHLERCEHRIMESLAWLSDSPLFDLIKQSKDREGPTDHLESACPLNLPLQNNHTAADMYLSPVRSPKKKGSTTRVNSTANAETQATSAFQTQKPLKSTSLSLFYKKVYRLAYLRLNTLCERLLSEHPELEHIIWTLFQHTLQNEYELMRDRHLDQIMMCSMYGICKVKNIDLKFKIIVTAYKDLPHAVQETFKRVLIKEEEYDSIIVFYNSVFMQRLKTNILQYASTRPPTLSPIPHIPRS

T2: Rb^P R621P (human, UniProt P06400 380-788, R621P)
T2 construct: also called variant 43
T2 sequence (looked up): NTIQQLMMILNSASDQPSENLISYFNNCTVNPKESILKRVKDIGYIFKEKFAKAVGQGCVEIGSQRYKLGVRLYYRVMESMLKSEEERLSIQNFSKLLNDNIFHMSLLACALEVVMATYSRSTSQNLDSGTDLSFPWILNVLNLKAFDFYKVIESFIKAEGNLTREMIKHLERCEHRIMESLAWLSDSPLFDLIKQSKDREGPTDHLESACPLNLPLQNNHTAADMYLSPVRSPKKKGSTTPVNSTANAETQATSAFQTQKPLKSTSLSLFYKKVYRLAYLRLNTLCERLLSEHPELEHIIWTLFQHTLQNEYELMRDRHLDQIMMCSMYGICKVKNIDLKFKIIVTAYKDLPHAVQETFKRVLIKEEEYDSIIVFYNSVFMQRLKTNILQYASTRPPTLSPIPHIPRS

T3: Rb^P Q444R (human, UniProt P06400 380-788, Q444R)
T3 construct: also called variant 4
T3 sequence (looked up): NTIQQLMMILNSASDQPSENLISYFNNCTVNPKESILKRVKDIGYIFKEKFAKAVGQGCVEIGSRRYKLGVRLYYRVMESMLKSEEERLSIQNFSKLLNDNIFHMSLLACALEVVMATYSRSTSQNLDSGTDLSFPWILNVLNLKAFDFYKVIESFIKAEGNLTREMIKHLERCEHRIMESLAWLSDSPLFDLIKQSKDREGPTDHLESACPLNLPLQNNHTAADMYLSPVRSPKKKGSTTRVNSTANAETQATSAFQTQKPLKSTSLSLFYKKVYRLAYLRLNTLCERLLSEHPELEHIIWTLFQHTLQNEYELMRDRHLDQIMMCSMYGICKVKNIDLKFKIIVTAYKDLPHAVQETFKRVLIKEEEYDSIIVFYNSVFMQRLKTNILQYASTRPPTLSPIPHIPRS

T4: Rb^P T687I (human, UniProt P06400 380-788, T687I)
T4 construct: also called variant 59
T4 sequence (looked up): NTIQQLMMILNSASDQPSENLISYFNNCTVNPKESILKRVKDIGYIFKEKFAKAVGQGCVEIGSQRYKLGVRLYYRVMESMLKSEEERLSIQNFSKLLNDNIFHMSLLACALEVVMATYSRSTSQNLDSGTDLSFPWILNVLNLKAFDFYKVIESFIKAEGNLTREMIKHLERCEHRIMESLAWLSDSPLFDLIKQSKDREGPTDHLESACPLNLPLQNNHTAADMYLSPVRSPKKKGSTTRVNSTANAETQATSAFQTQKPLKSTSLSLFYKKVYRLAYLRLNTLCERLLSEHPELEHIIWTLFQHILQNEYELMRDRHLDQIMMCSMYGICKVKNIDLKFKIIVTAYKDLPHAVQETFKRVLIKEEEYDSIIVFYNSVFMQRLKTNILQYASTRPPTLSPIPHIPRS

T5: Rb^P M761L (human, UniProt P06400 380-788, M761L)
T5 construct: also called variant 74
T5 sequence (looked up): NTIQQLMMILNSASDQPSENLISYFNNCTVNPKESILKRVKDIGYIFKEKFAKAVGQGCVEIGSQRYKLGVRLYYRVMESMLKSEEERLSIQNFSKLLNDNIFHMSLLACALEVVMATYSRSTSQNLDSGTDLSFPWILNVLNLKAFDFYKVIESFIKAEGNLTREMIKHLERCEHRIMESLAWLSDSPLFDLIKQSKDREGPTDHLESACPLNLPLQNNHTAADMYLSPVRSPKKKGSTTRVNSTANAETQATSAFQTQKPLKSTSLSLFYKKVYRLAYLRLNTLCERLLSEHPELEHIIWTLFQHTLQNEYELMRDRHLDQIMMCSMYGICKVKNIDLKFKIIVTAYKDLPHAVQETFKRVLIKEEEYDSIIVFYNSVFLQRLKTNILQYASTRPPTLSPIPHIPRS


How the values were obtained:
Test in all cases: fluorescence polarisation; 37 °C, after the 25 °C reading ramped over 7 min to 37 °C and 2 min incubation; unlabeled Rb^P against 1.5 nM TMR-E2F1^TD or 7.5 nM TMR-E7^LxCxE; 25 mM Tris pH 8.0, 200 mM NaCl, 1 mM DTT, 0.1% Tween-20; apparent Kd
Settings in all cases: both partners purified
[1] = target: T1, retinoblastoma protein pocket domain …
Rb^P R621P = target: T2, Rb^P R621P
Rb^P Q444R = target: T3, Rb^P Q444R
Rb^P T687I = target: T4, Rb^P T687I
Rb^P M761L = target: T5, Rb^P M761L

| Binder | Kd [1] [nM] | Kd (Rb^P R621P) [nM] | Kd (Rb^P Q444R) [nM] | Kd (Rb^P T687I) [nM] | Kd (Rb^P M761L) [nM] |
| --- | --- | --- | --- | --- | --- |
| {TMR}-GEGIRDLFDCDFGDLTPLD (also called E2F^TD; source: synthetic peptide, bought: GenScript) [TMR-E2F1^TD, peptide of the E2F1 transactivation domain] | 22 | 83 | 25 | 40 | 68 |
| DLYCYEQLN (also: TMR label, position not given here, source: synthetic peptide, bought: GenScript) [TMR-E7^LxCxE, LxCxE peptide of the E7 oncoprotein from HPV] | 12 | 32 | 17 | 29 | 5 |
